Data published in the RNAGym collection of RNA variant scans (doi:10.1073/pnas.2313332121).

B1: TPR t1 (parent)
chain: GACCAAUCUGCCCUCAGAGCUCGAGAACAUCUUCGGAUGCAGAGGAGGCAGGCUUCGGUGGCGCGAUAGCGCCAACGUCCUCAACCUCCAAUGCAUCCCACCACAUGAUGAUGCCUGAAGAGCCUUGGUUUUUUG

Variants of: B1
Assay: polymerase ribozyme fitness, log enrichment relative to wild type (log ratio); higher = more active; in vitro selection for triplet polymerase activity
Method in brief: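 Mutant libraries were PCR-built and transcribed for each subunit of a heterodimeric triplet polymerase ribozyme and selected for one round in triplicate at −7 °C, frozen, before gel excision of extended constructs and streptavidin-bead capture. Input and output libraries were Illumina-sequenced, keeping genotypes with ≥10 input reads and ≥1 read per output. Fitness is a logarithmic ratio of genotype to wild-type enrichment, in base 2, using inverse-variance-weighted replicate averages.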

Row | Variant | polymerase ribozyme fitness (log ratio)
1 | C13G U32C U78C | -2.51
2 | C12U G60A | -0.607
3 | C12U G60C | 0.537
4 | C13A U130A | -2.56
5 | C13A C15G U106A G117C | -0.827
6 | C13G C79A G113A | -3.53
7 | C13A C49A G71A | -1.76
8 | C13U C53A C72A A103U G127U | -5.25
9 | C13U C34G U133A | -4.86
10 | C13U C70A A121G | 0.554
11 | C12U U33G U131A | -4.55
12 | C13U A29G G52A C102U | -4.34
13 | C13G C34A | -4.26
14 | C13A A50U | -3.1
15 | C13G C72U A119U | 0.275
16 | C13U A41G G60U | -0.254
17 | C13A C73G | -3.11
18 | C13A A41U G57U | -3.67
19 | C12U G52A U112A G120A | 1.03
20 | C13U C76G C85U C104G | -7.55
21 | C13A G69U C73G | -5.01

Row | Variant | polymerase ribozyme fitness (log ratio)
22 | C13U A18U A118G | -1.84
23 | C13G A66U C114A | -4.3
24 | C13G C53A G69U C79A G120C | -0.403
25 | C13U A29U U78A C80U U96G U116G G120U G122A | -5.15
26 | C12U G48C C72G U131G | -1.72
27 | C13U G17U C31U U106A C115U | -1.65
28 | C12U G47U C86G G122A | 0.433
29 | C13G C79U | -2.23
30 | C13U A41G A43C U87C G113A G122U | -1.25
31 | C13G G48C U106C U112G G122A G135A | -2.17
32 | C13G C40G | -0.654
33 | C13G C53G G93C C101A | -3.63
34 | C13U G51A U55A C79G C89A | -5.95
35 | C13G C53G G63C | -2.03
36 | C13G G51A C97U A111G U129A | -6.21
37 | C13U C82U | -0.268
38 | C13G C85U C88A C102A A105G C124U | -6.67
39 | C13U A29G A83G | -1.83
40 | C13G C53U | -1.87
41 | C13U G51C C85A C124G | -3.2
42 | C13U G39U G44U | -1.24

Row | Variant | polymerase ribozyme fitness (log ratio)
43 | C13G C28U | -3.35
44 | C13U A50G C70U C79U C86G G117A | -2.99
45 | C12U G71A A111C C115A U131G U133A | -0.622
46 | C13G C94A C101G C123G | -1.76
47 | C13U A50G G52A G69A G77U | -2.68
48 | C13U C15G A18U A66U | -5.7
49 | C13A G61A C89A | -3.18
50 | C13U G45A G71C | -0.496
51 | C13A A27U A43U G57C | -4.33
52 | C13G C72A C82A U96G A100U C115A | -3.76
53 | C13U C115A | -0.378
54 | C12U U38G C62U C76U C79A | -1.79
55 | C13U A46U C72G G122A | -1.17
56 | C13A G42C A66C C99U C101U C114U G127U | -6.24
57 | C12U G57A | -0.879
58 | C13G A50U | -3.13
59 | C12U G52U C53G U78G | -0.0807
60 | C12U G117A | 0.626
61 | C12U G69C | -0.628
62 | C13U G19A A41U G44U G69U | -2.81
63 | C13U C70G | -1.68

Row | Variant | polymerase ribozyme fitness (log ratio)
64 | C13U C72U U129G | -0.856
65 | C12U U14C C72G C82G U112A | 0.602
66 | C13G C85A U112C | -1.28
67 | C13G C40A C123U | -0.0334
68 | C12U U109C | -2.5
69 | C13G C53G C72U | -1.34
70 | C13A C73G G120A C123A | -1.91
71 | C13G G63C | -1.92
72 | C13G G63A | -2.24
73 | C13G G63U | -2.53
74 | C13G G42U C49U G61U | -3.55
75 | C13U C15A G60A G113C G135U | -7.27
76 | C12U U21G C62G A74C U78A | -3.33
77 | C12U U129A | -0.808
78 | C13G G52A C72G C85A | -4.46
79 | C13G A16U C49A G63A | -3.65
80 | C13G C94U | -1.78
81 | C12U U38G C72G | -0.666
82 | C12U G44U C72G G127A G128C | -4.51
83 | C13A A29G C53U | -2.88
84 | C12U G42U C73A U112A G135C | -0.178
